{
  "source": "patent US20190322750A1",
  "about": "(Y BIOLOGICS, published 2019)",
  "binders": {"B1": {"name": "PDL1-16E12 (antibody, V domains shown)", "VH": "QMQLVQSGAEVKKPGSSVKVSCKASGGTFSSYAISWVRQAPGQGLEWMGRIIPILGIANYAQKFQGRVTITADKSTSTAYMELSSLRSEDTAVYYCAKPRDGYNLVAFDIWGQGTMVTVSS", "VL": "QLVLTQPPSVSGAPGQTVTISCTGSSSNIGAGYDVHWYQQLPGTAPKLLIYGNNNRPSGVPDRFSGSKSGALASLAITGLQAEDGADYHCQSYDNSLSAHAVFGTGTKVTVL", "notes": "Only FR/CDR pieces are tied to the clone; also called parent antibody"}, "B2": {"name": "PD-L1-16E12-LS-4F5 (Kappa) (antibody, V domains shown)", "VH": "B1 VH", "VL": "QLVLTQPPSVSGAPGQRVTISCTGSSSNIGAGYDVHWYQQLPGAAPKLLIYGDINRPSGVPDRFSGSKSGISASLAITGLQAEDEADYYCQSYDSSLSGGVFGGGTKLTVL"}, "B3": {"name": "PDL1-16E12 (LS/4F5) (antibody, V domains shown)", "VH": "B1 VH", "VL": "B2 VL", "notes": "also called 16E12(4F5); 16E12-4F5"}},
  "key": {"[1]": {"molecular_target": "T1, PD-L1-hFc (human, UniProt Q9NZQ7 19-238)", "T1 construct": "extracellular domain; Made in HEK-293F cells, protein A purified; also called PD-L1 antigen; PD-L1 protein", "T1 sequence (Q9NZQ7 other isoform, or with tags, fused parts or gaps limits assumed)": "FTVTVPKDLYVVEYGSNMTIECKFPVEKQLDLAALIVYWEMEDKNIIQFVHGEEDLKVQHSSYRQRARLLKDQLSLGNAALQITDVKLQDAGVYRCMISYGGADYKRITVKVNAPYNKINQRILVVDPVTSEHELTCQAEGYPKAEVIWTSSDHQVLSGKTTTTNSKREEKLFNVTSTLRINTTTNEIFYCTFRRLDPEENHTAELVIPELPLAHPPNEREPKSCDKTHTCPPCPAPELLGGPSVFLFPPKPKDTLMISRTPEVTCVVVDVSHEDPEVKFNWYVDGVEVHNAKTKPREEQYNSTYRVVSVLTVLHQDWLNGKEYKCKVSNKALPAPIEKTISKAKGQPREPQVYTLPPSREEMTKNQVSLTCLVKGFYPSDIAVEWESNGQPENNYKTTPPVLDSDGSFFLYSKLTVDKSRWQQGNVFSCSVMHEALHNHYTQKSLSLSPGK", "assay": "kinetics on PD-L1-hFc (legend paragraph 40; text names ProteOn XPR36, the sheet's sensorgrams have a nm axis)"}, "[2]": {"molecular_target": "M7", "assay": "ELISA on coated antigen, column M7"}, "[3]": {"molecular_target": "T2, human PD-L1 over-expressed on HEK293E cells (human, UniProt Q9NZQ7 19-290)", "T2 construct": "whole, on cells; also called human PD-L1 (NM_014143.2)", "T2 sequence (Q9NZQ7 19-290)": "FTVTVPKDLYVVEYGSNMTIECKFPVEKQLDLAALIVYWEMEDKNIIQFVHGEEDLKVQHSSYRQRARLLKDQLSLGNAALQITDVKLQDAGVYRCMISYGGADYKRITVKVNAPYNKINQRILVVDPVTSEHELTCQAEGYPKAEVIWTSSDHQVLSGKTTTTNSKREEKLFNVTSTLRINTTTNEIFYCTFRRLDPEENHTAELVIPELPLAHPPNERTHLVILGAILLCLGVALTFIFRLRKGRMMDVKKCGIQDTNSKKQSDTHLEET", "assay": "flow cytometry (Geometric Mean) on HEK293E cells over-expressing human PD-L1, serial dilution", "protocol": "Then, the cells were washed three times with PBS (#LB001-02, Welgene) containing 2% fetal bovine serum and reacted at 4° C. for 20 minutes with an anti-human IgG antibody (#FI-3000, Vectorlabs) conjugated with a FITC (fluorescein isothiocyanate) fluorescent substance. Then, the cells were subjected to the same washing process as above and then suspended in 0.5 ml of PBS containing 2% FBS (#26140-079, Thermo Fisher) with an FACSCanto II flow cytometer (BD Biosciences, USA) as a flow cytometer."}, "[4]": {"molecular_target": "M2", "assay": "ELISA on coated antigen, column M2", "protocol": "(§1) An antigen PD-L1 wild type (WT) or several mutants were coated at a density of 100 ng/well on a 96-well immunoplate at 4° C. for 16 hours and the wells were blocked with 4% skim milk dissolved in PBS. Each well was washed with 0.2 ml of PBS/T, and then a single clone scFv-phage (each […]) cultured for 16 hours was added in a dose of 100 μl to each well and reacted at room temperature for 2 hours. Again, each well was washed 4 times with 0.2 ml of PBS/T, and then the second antibody, anti-Fab, was diluted to 1/2000 and reacted at room temperature for 1 hour. After washing with 0.2 ml of PBS/T, color development was performed and absorbance was measured at 490 nm."}, "[5]": {"molecular_target": "M4", "assay": "ELISA on coated antigen, column M4", "protocol": "as §1"}, "[6]": {"molecular_target": "T1, PD-L1-hFc", "assay": "SPR (ProteOn XPR36), PD-L1-hFc immobilised on GLC chip, antibody 30 nM to 0.123 nM as analyte", "protocol": "(§2) A ProteOn XPR36 (BioRad) instrument was used. The GLC sensor chip (BioRad) was mounted on the instrument and washed with PBST buffer, and the carboxymethyldextran surface was activated with an EDC/sulfo-NHS mixed solution. PD-L1-hFc dissolved at a concentration of 5 ug/ml in a 10 mM sodium acetate buffer solution (pH 5.0) was injected and immobilized on the GLC sensor chip.\n(§3) In order to deactivate the activated carboxyl groups that remain unreacted with the PD-L1 protein, 1 M ethanolamine was flowed and 10 mM glycine (pH 2.0) was injected in order to wash proteins that remain unbound to the sensor chip.\nThe equilibrium dissociation constant (KD) was calculated by plotting and fitting the sensogram data in the equilibrium state depending on concentration."}, "[7]": {"molecular_target": "M6", "assay": "ELISA on coated antigen, column M6", "protocol": "as §1"}, "[8]": {"molecular_target": "T3, WT (human, UniProt Q9NZQ7)", "T3 construct": "recombinant; also called hPD-L1; antigen PD-L1 wild type (WT)", "T3 sequence (Q9NZQ7 19-238 limits assumed)": "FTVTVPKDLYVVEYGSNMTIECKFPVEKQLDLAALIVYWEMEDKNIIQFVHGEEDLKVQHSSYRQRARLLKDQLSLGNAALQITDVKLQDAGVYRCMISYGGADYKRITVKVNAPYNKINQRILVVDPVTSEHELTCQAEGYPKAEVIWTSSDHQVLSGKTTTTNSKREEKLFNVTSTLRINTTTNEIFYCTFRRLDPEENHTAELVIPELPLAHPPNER", "assay": "ELISA on coated antigen, column WT", "protocol": "as §1"}, "[9]": {"molecular_target": "M8", "assay": "ELISA on coated antigen, column M8", "protocol": "as §1"}, "[10]": {"molecular_target": "M1", "assay": "ELISA on coated antigen, column M1", "protocol": "as §1"}, "[11]": {"molecular_target": "T4, ITGA6", "T4 construct": "unrelated antigen column; all antibodies give 0.5 to 0.6", "T4 sequence (P23229 whole entry, species assumed, looked up)": "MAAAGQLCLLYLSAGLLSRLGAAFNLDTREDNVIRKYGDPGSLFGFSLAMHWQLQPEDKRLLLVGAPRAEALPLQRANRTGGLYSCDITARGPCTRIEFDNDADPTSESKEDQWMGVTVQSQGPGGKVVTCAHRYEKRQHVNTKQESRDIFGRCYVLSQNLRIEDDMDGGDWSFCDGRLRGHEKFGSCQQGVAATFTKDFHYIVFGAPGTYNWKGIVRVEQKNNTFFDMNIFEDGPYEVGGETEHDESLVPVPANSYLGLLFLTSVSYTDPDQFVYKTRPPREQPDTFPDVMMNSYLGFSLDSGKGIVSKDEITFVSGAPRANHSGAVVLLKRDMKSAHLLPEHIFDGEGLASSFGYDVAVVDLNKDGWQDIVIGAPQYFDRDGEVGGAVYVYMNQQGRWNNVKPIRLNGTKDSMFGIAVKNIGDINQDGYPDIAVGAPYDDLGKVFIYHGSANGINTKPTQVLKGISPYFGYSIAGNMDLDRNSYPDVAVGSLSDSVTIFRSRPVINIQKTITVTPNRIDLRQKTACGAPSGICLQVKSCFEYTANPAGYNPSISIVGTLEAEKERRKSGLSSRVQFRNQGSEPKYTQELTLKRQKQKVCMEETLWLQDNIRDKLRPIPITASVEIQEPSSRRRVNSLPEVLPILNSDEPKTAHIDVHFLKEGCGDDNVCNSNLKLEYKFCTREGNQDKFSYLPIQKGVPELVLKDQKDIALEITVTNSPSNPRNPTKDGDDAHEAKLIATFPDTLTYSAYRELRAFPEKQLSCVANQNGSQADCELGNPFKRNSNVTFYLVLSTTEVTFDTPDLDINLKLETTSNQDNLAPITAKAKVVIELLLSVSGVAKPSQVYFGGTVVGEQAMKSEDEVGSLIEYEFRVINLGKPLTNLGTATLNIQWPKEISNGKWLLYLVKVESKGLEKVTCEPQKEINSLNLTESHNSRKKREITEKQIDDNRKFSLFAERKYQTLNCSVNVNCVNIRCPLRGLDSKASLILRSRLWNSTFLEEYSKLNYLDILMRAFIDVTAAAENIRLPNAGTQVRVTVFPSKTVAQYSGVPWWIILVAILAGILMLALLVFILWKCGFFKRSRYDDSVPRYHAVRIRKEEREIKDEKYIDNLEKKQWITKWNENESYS", "assay": "ELISA on coated antigen, column ITGA6"}, "[12]": {"molecular_target": "T5, PD-L1 on CHO cell line highly expressing PD-L1 (PD-1/PD-L1 blockade bioassay kit, promega J1250) (UniProt Q9NZQ7 19-290, limits assumed)", "T5 sequence (Q9NZQ7 19-290 limits assumed)": "as the sequence (Q9NZQ7 19-290) above", "assay": "cell-based or functional assay"}, "[13]": {"molecular_target": "M3", "assay": "ELISA on coated antigen, column M3"}, "[14]": {"molecular_target": "M5", "assay": "ELISA on coated antigen, column M5", "protocol": "as §1"}, "[15]": {"molecular_target": "T6, PD-L1-His (human, UniProt Q9NZQ7)", "T6 construct": "recombinant, His-tagged; also called human PD-L1-His (S1479, Y-Biologics)", "T6 sequence (Q9NZQ7 19-238 limits assumed)": "as the sequence (Q9NZQ7 19-238 limits assumed) above", "assay": "competition ELISA: PD-L1-His pre-incubated with the antibody, then on coated PD-1-Fc (blocked ligand); % of max absorbance"}, "[16]": {"molecular_target": "T5, PD-L1 on CHO cell line highly …", "assay": "cell-based or functional assay", "remark": "listed apart in the source"}, "[17]": {"molecular_target": "T7, PD-L2-Fc (human, UniProt Q9BQ51)", "T7 construct": "recombinant Fc fusion; also called human PD-L2-Fc (#10292-H02H, Sino)", "T7 sequence (ligand-Fc, looked up)": "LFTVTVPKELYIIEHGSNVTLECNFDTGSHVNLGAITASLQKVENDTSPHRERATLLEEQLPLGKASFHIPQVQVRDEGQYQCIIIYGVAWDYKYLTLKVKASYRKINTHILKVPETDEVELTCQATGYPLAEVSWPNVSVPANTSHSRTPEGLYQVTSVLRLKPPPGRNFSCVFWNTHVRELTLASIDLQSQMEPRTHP", "assay": "ELISA on coated PD-L2-Fc (2.5 and 5 ug/well), OD450nm"}, "[18]": {"molecular_target": "T1, PD-L1-hFc", "assay": "SPR (ProteOn XPR36), PD-L1-hFc immobilised on GLC chip, antibody as analyte; human PD-L1", "protocol": "as §2, §3"}, "[19]": {"molecular_target": "mouse PD-L1 protein (mouse, UniProt Q9EP73 19-238, limits assumed)", "sequence (Q9EP73 19-238 limits assumed)": "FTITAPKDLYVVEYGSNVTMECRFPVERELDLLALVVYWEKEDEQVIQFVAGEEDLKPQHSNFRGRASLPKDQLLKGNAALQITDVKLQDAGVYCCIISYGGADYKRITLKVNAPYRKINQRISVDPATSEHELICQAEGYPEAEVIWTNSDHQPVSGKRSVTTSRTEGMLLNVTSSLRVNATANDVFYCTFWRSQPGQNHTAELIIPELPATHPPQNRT", "assay": "SPR (ProteOn XPR36); format of the mouse protein not stated"}, "[20]": {"molecular_target": "T2, human PD-L1 over-expressed on HEK293E …", "assay": "flow cytometry on HEK293E/PD-L1 cells, FITC anti-human IgG, serial dilutions; fit table"}, "[21]": {"molecular_target": "T8, cynomolgus PD-L1 protein (cynomolgus, UniProt G7PSE7 19-239)", "T8 construct": "also called monkey PD-L1", "T8 sequence (G7PSE7 entry or part of it)": "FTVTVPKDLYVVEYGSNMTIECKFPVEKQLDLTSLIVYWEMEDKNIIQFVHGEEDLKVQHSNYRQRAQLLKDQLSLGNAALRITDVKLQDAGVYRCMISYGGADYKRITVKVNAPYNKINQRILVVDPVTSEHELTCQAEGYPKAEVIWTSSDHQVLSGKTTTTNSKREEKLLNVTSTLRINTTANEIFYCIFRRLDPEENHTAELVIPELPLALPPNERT", "assay": "SPR (ProteOn XPR36); format of the cynomolgus protein not stated; cynomolgus PD-L1"}, "[22]": {"molecular_target": "T5, PD-L1 on CHO cell line highly …", "assay": "cell-based or functional assay", "remark": "listed apart in the source"}},
  "data": [
    {"binder": "B1", "values": [
      {"measurement": "Kd", "setting": "[1]", "result": 43, "unit": "pM"},
      {"measurement": "koff", "setting": "[1]", "result": "1.43e-05", "unit": "s⁻¹"},
      {"measurement": "kon", "setting": "[1]", "result": 334000, "unit": "M⁻¹ s⁻¹"},
      {"measurement": "absorbance at 490 nm", "setting": "[2]", "result": 2.5},
      {"measurement": "EC50", "setting": "[3]", "result": 1720, "unit": "pM"},
      {"measurement": "absorbance at 490 nm", "setting": "[4]", "result": 2.3},
      {"measurement": "absorbance at 490 nm", "setting": "[5]", "result": 0.4},
      {"measurement": "Kd", "setting": "[6]", "result": 45, "unit": "pM"},
      {"measurement": "absorbance at 490 nm", "setting": "[7]", "result": 2.5},
      {"measurement": "absorbance at 490 nm", "setting": "[8]", "result": 2.5},
      {"measurement": "absorbance at 490 nm", "setting": "[9]", "result": 2.6},
      {"measurement": "absorbance at 490 nm", "setting": "[10]", "result": 2.4},
      {"measurement": "absorbance at 490 nm", "setting": "[11]", "result": 0.5},
      {"measurement": "EC50", "setting": "[12]", "result": 909, "unit": "pM"},
      {"measurement": "absorbance at 490 nm", "setting": "[13]", "result": 0.9},
      {"measurement": "absorbance at 490 nm", "setting": "[14]", "result": 2.4}
    ]},
    {"binder": "B2", "values": [
      {"measurement": "IC50", "setting": "[15]", "result": 7660, "unit": "pM"},
      {"measurement": "Average *EC50 [nM], PD-1/PD-L1 blockade bioassay", "setting": "[16]", "result": 0.25, "unit": "nM"},
      {"measurement": "binding result", "setting": "[17]", "result": "no binding (tested: 1.0 ug/ml)"}
    ]},
    {"binder": "B3", "values": [
      {"measurement": "Kd", "setting": "[1]", "result": 8.53, "unit": "pM"},
      {"measurement": "koff", "setting": "[1]", "result": "2.18e-06", "unit": "s⁻¹"},
      {"measurement": "kon", "setting": "[1]", "result": 256000, "unit": "M⁻¹ s⁻¹"},
      {"measurement": "Kd", "setting": "[18]", "result": "< 32", "unit": "pM"},
      {"measurement": "koff", "setting": "[18]", "result": "< 1e-05", "unit": "s⁻¹"},
      {"measurement": "kon", "setting": "[18]", "result": 310000, "unit": "M⁻¹ s⁻¹"},
      {"measurement": "Kd", "setting": "[19]", "result": 808, "unit": "pM"},
      {"measurement": "koff", "setting": "[19]", "result": 0.000673, "unit": "s⁻¹"},
      {"measurement": "kon", "setting": "[19]", "result": 833000, "unit": "M⁻¹ s⁻¹"},
      {"measurement": "Bmax", "setting": "[20]", "result": 4100},
      {"measurement": "Kd", "setting": "[20]", "result": 1460, "unit": "pM"},
      {"measurement": "Kd", "setting": "[21]", "result": "< 35", "unit": "pM"},
      {"measurement": "koff", "setting": "[21]", "result": "< 1e-05", "unit": "s⁻¹"},
      {"measurement": "kon", "setting": "[21]", "result": 287000, "unit": "M⁻¹ s⁻¹"},
      {"measurement": "EC50 (first run)", "setting": "[22]", "result": 0.3, "unit": "nM"},
      {"measurement": "EC50 (second run)", "setting": "[22]", "result": 0.21, "unit": "nM"}
    ]}
  ]
}
